In test [1] the target is Porcine Kallikrein (porcine). Kind of test: enzyme inhibition kinetics (Morrison equation); serial dilution of the serpin, pre-incubated with the protease before the fluorogenic substrate; kallikrein 15 nM with Gly-Pro-Arg-NHMec 9.1 uM, chymotrypsin 2 ug/mL with Ala-Ala-Pro-Phe-NHMec 42.9 uM; 37°C; sodium acetate buffer pH 7.0; Ki from apparent Ki; triplicate.
Test [2] has as its target Porcine Kallikrein (porcine).
Test [3] deals with Bovine α-Chymotrypsin (bovine). In words: enzyme inhibition kinetics (Morrison equation); serial dilution of the serpin, pre-incubated with the protease before the fluorogenic substrate; kallikrein 15 nM with Gly-Pro-Arg-NHMec 9.1 uM, chymotrypsin 2 ug/mL with Ala-Ala-Pro-Phe-NHMec 42.9 uM; 37°C; sodium acetate buffer pH 7.0; Ki from apparent Ki; triplicate.
In test [4] the target is Human Neutrophil elastase (human) (UniProt P08246).
Another test concerns the target Human Chymase (human) (UniProt P23946).
In test [5] the target is Human Cathepsin G (human) (UniProt P08311).
UniProt P08311, sequence (P08311 21-244): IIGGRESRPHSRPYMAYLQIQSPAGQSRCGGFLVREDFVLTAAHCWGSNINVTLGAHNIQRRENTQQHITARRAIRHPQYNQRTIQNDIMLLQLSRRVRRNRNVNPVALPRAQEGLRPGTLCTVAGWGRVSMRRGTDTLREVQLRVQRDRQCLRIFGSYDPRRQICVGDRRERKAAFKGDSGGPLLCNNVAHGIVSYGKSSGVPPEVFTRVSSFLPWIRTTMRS

Porcine Kallikrein (porcine), sequence (P00752 other isoform, or with tags, fused parts or gaps): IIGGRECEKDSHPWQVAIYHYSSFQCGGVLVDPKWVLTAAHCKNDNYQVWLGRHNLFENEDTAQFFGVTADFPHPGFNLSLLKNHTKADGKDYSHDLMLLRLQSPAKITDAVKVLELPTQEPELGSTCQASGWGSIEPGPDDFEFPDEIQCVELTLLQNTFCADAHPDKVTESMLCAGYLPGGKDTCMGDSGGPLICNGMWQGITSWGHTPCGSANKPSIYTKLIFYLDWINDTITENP
UniProt P23946, sequence (P23946 22-247): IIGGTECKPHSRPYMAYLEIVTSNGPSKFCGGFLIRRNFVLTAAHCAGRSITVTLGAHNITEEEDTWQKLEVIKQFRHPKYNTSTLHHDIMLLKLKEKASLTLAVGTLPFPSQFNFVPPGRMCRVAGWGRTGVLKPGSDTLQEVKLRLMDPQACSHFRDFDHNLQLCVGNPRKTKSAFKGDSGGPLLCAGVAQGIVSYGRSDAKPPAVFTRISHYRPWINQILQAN
UniProt P08246, sequence (P08246 30-267): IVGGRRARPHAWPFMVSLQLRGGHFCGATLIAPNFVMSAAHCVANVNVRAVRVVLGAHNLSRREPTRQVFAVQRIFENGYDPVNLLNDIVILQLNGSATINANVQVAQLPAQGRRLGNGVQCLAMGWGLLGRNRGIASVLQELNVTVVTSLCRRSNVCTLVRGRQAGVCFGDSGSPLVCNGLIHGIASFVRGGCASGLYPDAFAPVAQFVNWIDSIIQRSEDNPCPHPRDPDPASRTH

Take “recombinant Fasciola hepatica serpin 1 (natural protein)”: the Ki in test [1] is 40 nM. Further, the inhibition of kallikrein (150 nM) activity on a fluorogenic substrate, rFhSrp1 at 10 and 500 nM (48% at 10 nM) in test [2] was determined as 96%.
Turning to “recombinant Fasciola hepatica serpin 2 (natural protein)”, the Ki in test [3] is 0.07 nM. The inhibition of neutrophil elastase (50 nM) activity on a fluorogenic substrate, rFhSrp2 at 10 and 500 nM (only slightly changed at 10 nM) in test [4] turned out to be 99.9%. In addition, the inhibition of chymase (0.6 uM) activity on a fluorogenic substrate, rFhSrp2 at 10 and 500 nM (only slightly changed at 10 nM) with Human Chymase (human) is 100%. This substance came in with an inhibition of cathepsin G (100 nM) activity on a fluorogenic substrate, rFhSrp2 at 10 and 500 nM (only slightly changed at 10 nM) in test [5] of 97.5%.

The values are drawn from publication PMC7437470.
